Data taken from publication PMC5686944.

Biological target: plasminogen (UniProt P00747)
Sequence of UniProt P00747 (P00747 20-810): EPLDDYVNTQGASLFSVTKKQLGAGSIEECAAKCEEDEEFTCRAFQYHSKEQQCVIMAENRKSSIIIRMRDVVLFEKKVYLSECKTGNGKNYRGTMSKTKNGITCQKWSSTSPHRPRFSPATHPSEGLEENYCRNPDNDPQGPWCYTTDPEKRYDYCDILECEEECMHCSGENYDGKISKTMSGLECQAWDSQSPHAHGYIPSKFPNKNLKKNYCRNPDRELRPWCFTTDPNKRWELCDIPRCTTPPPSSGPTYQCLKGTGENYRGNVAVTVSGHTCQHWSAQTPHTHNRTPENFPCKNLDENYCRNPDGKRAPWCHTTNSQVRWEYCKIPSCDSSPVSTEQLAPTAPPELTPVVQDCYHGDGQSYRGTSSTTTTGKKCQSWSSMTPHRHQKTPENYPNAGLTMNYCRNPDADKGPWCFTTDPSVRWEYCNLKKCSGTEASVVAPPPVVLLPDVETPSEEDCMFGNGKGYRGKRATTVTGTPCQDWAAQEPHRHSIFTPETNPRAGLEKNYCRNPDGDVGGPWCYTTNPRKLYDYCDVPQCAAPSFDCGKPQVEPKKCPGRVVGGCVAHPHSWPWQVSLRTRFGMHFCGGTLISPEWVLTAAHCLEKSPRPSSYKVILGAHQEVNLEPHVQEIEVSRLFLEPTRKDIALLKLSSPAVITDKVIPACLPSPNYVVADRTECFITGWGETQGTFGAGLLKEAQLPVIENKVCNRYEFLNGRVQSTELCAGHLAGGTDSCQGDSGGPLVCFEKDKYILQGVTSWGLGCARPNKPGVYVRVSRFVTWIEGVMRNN

## wild-type staphylokinase (Sak) (natural protein)
  fibrin plate assay, diameter of halo pattern (5.0 x 10^3 IU unmodified Sak, 310 K, 20 h): 25.4 mm
